T1: CHCHD4 (human (endogenous in HEK293), UniProt Q8N4Q1 1-142)
T1 construct: CHCHD4, mammalian homologue of yeast Mia40; endogenous protein of HEK293 cells, precipitated with polyclonal anti-CHCHD4 antibodies (Proteintech); source: endogenous, HEK293 lysate
T1 sequence (looked up): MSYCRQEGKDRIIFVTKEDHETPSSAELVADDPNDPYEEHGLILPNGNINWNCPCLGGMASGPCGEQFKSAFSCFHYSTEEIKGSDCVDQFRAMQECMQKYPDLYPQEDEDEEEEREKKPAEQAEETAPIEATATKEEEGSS


Tests used:
[1] = biological target: CHCHD4 (human (endogenous in HEK293)) (UniProt Q8N4Q1); experiment: co-IP; HEK293 cells transfected with PINK1-EGFP or its mutants for 24 hr; lysed; immunoprecipitation of endogenous CHCHD4 with anti-CHCHD4 antibody; immunoblot; level in the precipitant compared to input
[2] = biological target: T1, CHCHD4; experiment: as above; settings: partners not purified

Molecule	relative level in the precipitants as compared to input [1]	relative level in the precipitants as compared to input [2]
PINK1‐EGFP ∆166‐171 (AA166‐171 deletion) (from UniProt Q9BXM7 78-581) (natural protein)	1.01	–
PINK1‐EGFP A168P (natural protein, UniProt Q9BXM7 78-581, looked up, PINK1 as in PINK1-EGFP with the PD-associated mutation A168P; also called PINK1 A168P; PD‐associated mutant; source: HEK293, transfected, in lysate; not shown: EGFP (from the vector pEGFP-N3), C-terminal, kept) AARLQRQFVVRAWGCAGPCGRAVFLAFGLGLGLIEEKQAESRRAVSACQEIQAIFTQKSKPGPDPLDTRRLQGFRLEEYLIGQSIGKGCSPAVYEATMPTLPQNLEVTKSTGLLPGRGPGTSAPGEGQERAPGAPAFPLAIKMMWNISAGSSSEAILNTMSQELVPASRVALAGEYGAVTYRKSKRGPKQLAPHPNIIRVLRAFTSSVPLLPGALVDYPDVLPSRLHPEGLGHGRTLFLVMKNYPCTLRQYLCVNTPSPRLAAMMLLQLLEGVDHLVQQGIAHRDLKSDNILVELDPDGCPWLVIADFGCCLADESIGLQLPFSSWYVDRGGNGCLMAPEVSTARPGPRAVIDYSKADAWAVGAIAYEIFGLVNPFYGQGKAHLESRSYQEAQLPALPESVPPDVRQLVRALLQREASKRPSARVAANVLHLSLWGEHILALKNLKLDKMVGWLLQQSAATLLANRLTEKCCVETKMKMLFLANLECETLCQAALLLCSWRAAL	–	0.2
PINK1‐EGFP V170G (natural protein, UniProt Q9BXM7 78-581, looked up, PINK1 as in PINK1-EGFP with the PD-associated mutation V170G; also called PINK1 V170G; PD‐associated mutant; source: HEK293, transfected, in lysate; not shown: EGFP (from the vector pEGFP-N3), C-terminal, kept) AARLQRQFVVRAWGCAGPCGRAVFLAFGLGLGLIEEKQAESRRAVSACQEIQAIFTQKSKPGPDPLDTRRLQGFRLEEYLIGQSIGKGCSAAGYEATMPTLPQNLEVTKSTGLLPGRGPGTSAPGEGQERAPGAPAFPLAIKMMWNISAGSSSEAILNTMSQELVPASRVALAGEYGAVTYRKSKRGPKQLAPHPNIIRVLRAFTSSVPLLPGALVDYPDVLPSRLHPEGLGHGRTLFLVMKNYPCTLRQYLCVNTPSPRLAAMMLLQLLEGVDHLVQQGIAHRDLKSDNILVELDPDGCPWLVIADFGCCLADESIGLQLPFSSWYVDRGGNGCLMAPEVSTARPGPRAVIDYSKADAWAVGAIAYEIFGLVNPFYGQGKAHLESRSYQEAQLPALPESVPPDVRQLVRALLQREASKRPSARVAANVLHLSLWGEHILALKNLKLDKMVGWLLQQSAATLLANRLTEKCCVETKMKMLFLANLECETLCQAALLLCSWRAAL	–	0.39
PINK1‐EGFP Y171S (natural protein, UniProt Q9BXM7 78-581, looked up, PINK1 as in PINK1-EGFP with Y171S; also called Y171S point mutant; source: HEK293, transfected, in lysate; not shown: EGFP (from the vector pEGFP-N3), C-terminal, kept) AARLQRQFVVRAWGCAGPCGRAVFLAFGLGLGLIEEKQAESRRAVSACQEIQAIFTQKSKPGPDPLDTRRLQGFRLEEYLIGQSIGKGCSAAVSEATMPTLPQNLEVTKSTGLLPGRGPGTSAPGEGQERAPGAPAFPLAIKMMWNISAGSSSEAILNTMSQELVPASRVALAGEYGAVTYRKSKRGPKQLAPHPNIIRVLRAFTSSVPLLPGALVDYPDVLPSRLHPEGLGHGRTLFLVMKNYPCTLRQYLCVNTPSPRLAAMMLLQLLEGVDHLVQQGIAHRDLKSDNILVELDPDGCPWLVIADFGCCLADESIGLQLPFSSWYVDRGGNGCLMAPEVSTARPGPRAVIDYSKADAWAVGAIAYEIFGLVNPFYGQGKAHLESRSYQEAQLPALPESVPPDVRQLVRALLQREASKRPSARVAANVLHLSLWGEHILALKNLKLDKMVGWLLQQSAATLLANRLTEKCCVETKMKMLFLANLECETLCQAALLLCSWRAAL	–	3.31
